# Results: paper PMC5363614, “Secreted protein acidic and rich in cysteine (SPARC) induces lipotoxicity in neuroblastoma by regulating transport of albumin complexed with fatty acids” (Oncotarget, 2016)
# B1: Recombinant human SPARC (secreted protein acidic and rich in cysteine), histidine-tagged (natural protein, UniProt P09486 18-303, looked up)
# chain: APQQEALPDETEVVEETVAEVTEVSVGANPVQVEVGEFDDGAEETEEEVVAENPCQNHHCKHGKVCELDENNTPMCVCQDPTSCPAPIGEFEKVCSNDNKTFDSSCHFFATKCTLEGTKKGHKLHLDYIGPCKYIPPCLDSELTEFPLRMRDWLKNVLVTLYERDEDNNLLTEKQKLRVKKIHENEKRLEAGDHPVELLARDFEKNYNMYIFPVHWQFGQLDQHPIDGYLSHTELAPLRAPLIPMEHCTTRFFETCDLDNDKYIALDEWAGCFGIKQKDIDKDLVI
# notes: Secreted protein acidic and rich in cysteine (SPARC), human, recombinant; The histidine tag is named for the SPR experiment; also called rhSPARC; histidine-tagged recombinant SPARC; source: HEK293 cells transfected with SPARC, serum-free conditioned media; purified as described [25]
# Biological target: T1, Bovine serum albumin (bovine, UniProt P02769 25-607)
# T1 construct: Serum albumin, bovine (BSA); Unlabelled BSA used as analyte in SPR; also called BSA; source: bought: Sigma-Aldrich
# Test: SPR; BIAcore 3000; histidine-tagged SPARC immobilised on Sensor NTA chip to about 100 RU; BSA as analyte, room temperature, 20 ul/minute, 5 minutes association, 5 minutes dissociation; global Langmuir fitting
# Details: both partners purified
# T1 sequence (P02769 25-607): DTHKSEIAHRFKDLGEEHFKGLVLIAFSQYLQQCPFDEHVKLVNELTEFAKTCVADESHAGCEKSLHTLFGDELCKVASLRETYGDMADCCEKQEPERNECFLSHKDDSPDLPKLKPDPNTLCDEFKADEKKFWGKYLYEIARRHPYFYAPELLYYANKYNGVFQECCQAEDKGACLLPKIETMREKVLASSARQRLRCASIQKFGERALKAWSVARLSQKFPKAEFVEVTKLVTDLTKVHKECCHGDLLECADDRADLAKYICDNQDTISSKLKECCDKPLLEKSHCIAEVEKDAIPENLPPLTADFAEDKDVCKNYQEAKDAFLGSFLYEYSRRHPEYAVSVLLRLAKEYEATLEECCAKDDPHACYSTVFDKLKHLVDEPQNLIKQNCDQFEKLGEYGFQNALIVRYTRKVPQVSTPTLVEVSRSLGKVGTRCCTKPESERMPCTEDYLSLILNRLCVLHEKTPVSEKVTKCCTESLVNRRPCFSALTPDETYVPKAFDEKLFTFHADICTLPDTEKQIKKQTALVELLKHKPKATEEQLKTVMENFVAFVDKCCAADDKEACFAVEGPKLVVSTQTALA
binder,measurement,value
B1,Kd,18.9 µM
